According to publication PMC12302554:
pKd: −log10 of the molar value.

Legend:
[1] = test system: BC19 CAR on CAR-T cells (anti-BCMA scFv, humanized anti-CD19 scFv, hinge); assay: flow cytometry; conditions: SPR: Biacore 1K, CM5 chip, protein coupled at 20 ug/mL in sodium acetate pH 5.0 (running buffer not given); cell binding: D-PBS, 4.5 g/L glucose, 5 mM MgCl2, 0.
[2] = test system: BCMA-CD19-His fusion protein (bispecific BC19 CAR ectodomain: anti-BCMA scFv + humanized anti-CD19 scFv + hinge); assay: SPR; conditions: multi-cycle kinetics, 1:1 fit, 7.8-125 nM aptamer; SPR: Biacore 1K, CM5 chip, protein coupled at 20 ug/mL in sodium acetate pH 5.0 (running buffer not given); cell binding: D-PBS, 4.5 g/L glucose, 5 mM MgCl2, 0.

| Sequence | pKd [1] | pKd [2] |
| --- | --- | --- |
| TTCAGCACTCCACGCATAGCACGCTGCCGTGTGCTGCATGTGGTCGTGTGTCCGTGCCTATGCGTGCTACCGTGAA [FAM-Aptamer A3] | 7.77 |  |
| TTCAGCACTCCACGCATAGCACGCTGCCGTGTGCTGCATGTGGTCGTGTGTCCGTGCCTATGCGTGCTACCGTGAA [Aptamer A3] |  | 7.43 |
